Assays:
[1] = target: AxqNOR Val495Ala-BRIL (Alcaligenes xylosoxidans); test: cryo-EM structure; single-particle cryo-EM of detergent-solubilised qNOR-BRIL (50 mM tris, 150 mM NaCl, 0.05% DTM; wild type pH 7.0 at 3 mg/ml, Val495Ala pH 7.5 at 5 mg/ml), C2 symmetry imposed
[2] = target: qNOR from Neisseria meningitidis (NmqNOR), wild type (Neisseria meningitidis); test: cryo-EM structure; cryo-EM dataset of wild-type NmqNOR, 9 Å reconstruction (fig. S1); conditions not given

Row | stoichiometry N [2] | Substance | stoichiometry N [1]
1 |  | AxqNOR Val495Ala-BRIL (enzyme) | 2
2 | 2 | qNOR from Neisseria meningitidis (NmqNOR), wild type (enzyme) | 

— paper PMC6713497
